Data taken from patent US8772236B2, “Truncated cystine-knot proteins” (Pepscan Systems B.V., priority 2009, dated 2014).
Numbering of substitutions follows the chain as printed. Where “and” joins values, the source holds several entries; their conditions need not be identical. Equal values may be shown once. Values belong to the molecule of their own block, whether it stands above or below them.

What was measured:
Avastin™ = assay: Competition ELISA: inhibition of Avastin-binding to surface-immobilized humVEGF1-165 by peptides
[1] = target: T1, ratVEGF1-165 homodimer (recombinant full-length ratVEGF) (Rattus norvegicus, UniProt P16612); assay: Binding of rat-antisera in ELISA to ratVEGF1-165 homodimer; conditions: coat ratVEGF1-165 homodimer; Avastin
T1 construct: humanVEGF), and D) ratVEGF1-165 homodimer (recombinant full-length ratVEGF); For
T1 sequence (P16612 27-165 isoform P16612-2 limits assumed): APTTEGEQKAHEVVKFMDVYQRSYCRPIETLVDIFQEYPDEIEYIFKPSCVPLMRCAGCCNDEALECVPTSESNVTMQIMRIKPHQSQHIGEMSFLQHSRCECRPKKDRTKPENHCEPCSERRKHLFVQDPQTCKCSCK
Experimental: Therefore, polystyrene 96-well plates (Greiner, Germany) were treated with 100 μL/well of 0.2% glutaric dialdehyde in phosphate-buffer (0.1 M, pH=5) for four hours at room temperature while shaking, following by washing (3×10 minutes) with phosphate-buffer (0.1 M, pH=8). Then, the wells were coated with 100 μL/well of a 1 μg/mL solution of oxid-humVEGF26-104/humVEGF1-165 in phosphate-buffer (0.1 M, pH=8) for three hours at 37° C., followed by overnight standing at room temperature. After washing with 1% TWEEN®-80 (3×), the plates were incubated with the antibody at various different dilutions in horse serum (4% in PBS/1% TWEEN®-80/3% NaCl), starting with 1/10 dilution in the first well and three-fold dilution steps in subsequent wells. Incubation was performed for one hour at 37° C., followed by washing with 1% TWEEN®-80 (3×). Then, the plates were incubated with 100 μL/well of peroxidase-labeled Goat-anti-rat serum (1/1000 dilution in 4% horse serum, see above) for one hour at 25° C., followed by washing with 1% TWEEN®-80 (4×). […] OD405 nm-values were measured after 45 minutes standing at room temperature in the dark.
(§3) Titers were calculated by determining the serum dilution for which OD405 nm is equal to 4×OD405 nm that of a buffer solution (see “ELISA-binding studies, example 1B”). […]

full-length TGF-B2 = target: T2, full-length TGF-B2 (Homo sapiens, UniProt P61812); assay: ELISA titers of rat antisera to full-length TGF-B2 after immunization with the chimeric peptide; format: binding
T2 sequence (P61812 303-414 limits assumed): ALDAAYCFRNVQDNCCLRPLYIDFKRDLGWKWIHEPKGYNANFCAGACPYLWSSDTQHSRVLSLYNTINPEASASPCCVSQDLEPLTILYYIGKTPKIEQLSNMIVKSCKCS
Excerpt: (§1) FIG. 21. (Panel A) Antibody titers in ELISA for 9wpv-rat sera (1 and 2+pre-immune sera) that were elicited via immunization with oxid-humTGFB215-111/Δ49-77-humVEGF62-67. Titers were defined as the −10 log [conc] at which the OD in ELISA is equal to 4× the background signal. (Panel B) Antibody binding in ELISA of 9wpv-rat sera to surface-immobilized 1) humTGFB2trunc-1 (with VEGF b2-loop), 2) humTGFB2trunc-2 (with sequence PGGSPA replacing native humTGF-B2 b2-loop), and 3) humVEGFtrunc.
(§2) Each animal received four inoculations (0, 2, 4, and 7.5 wks) with 2×450+2×130 microgram of oxid-humTGFB215-111/Δ49-77-humVEGF62-67.

[2] = system: humTGFB2trunc-1, humTGFB2trunc-2, humVEGFtrunc; assay: ELISA binding of 9wpv-rat sera to humTGFB2trunc-1, humTGFB2trunc-2 and humVEGFtrunc; parameters: species or system human
Excerpt: as §1, §2

humVEGF1-165 = target: T3, humVEGF1-165 (Homo sapiens, UniProt P15692); assay: ELISA titer determination of antisera on surface-immobilized humVEGF1-165 after immunization with oxid-humVEGF26-104; format: binding; conditions: female Wistar rats and female Balb/C mice
T3 sequence (P15692 27-191 isoform P15692-4 limits assumed): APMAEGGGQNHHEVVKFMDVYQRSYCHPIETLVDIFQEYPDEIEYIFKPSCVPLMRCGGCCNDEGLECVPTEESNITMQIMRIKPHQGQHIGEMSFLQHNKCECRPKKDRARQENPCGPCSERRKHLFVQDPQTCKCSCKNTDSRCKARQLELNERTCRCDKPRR
Experimental: Therefore, polystyrene 96-well plates (Greiner, Germany) were treated with 100 μL/well of 0.2% glutaric dialdehyde in phosphate-buffer (0.1 M, pH=5) for four hours at room temperature while shaking, following by washing (3×10 minutes) with phosphate-buffer (0.1 M, pH=8). Then, the wells were coated with 100 μL/well of a 1 μg/mL solution of oxid-humVEGF26-104/humVEGF1-165 in phosphate-buffer (0.1 M, pH=8) for three hours at 37° C., followed by overnight standing at room temperature. After washing with 1% TWEEN®-80 (3×), the plates were incubated with the antibody at various different dilutions in horse serum (4% in PBS/1% TWEEN®-80/3% NaCl), starting with 1/10 dilution in the first well and three-fold dilution steps in subsequent wells. […] OD405 nm-values were measured after 45 minutes standing at room temperature in the dark. […]
Wistar rats: Female Wistar rats were immunized with anti-humVEGF26-104 at day 0 with 400 μL (intramuscular+subcutaneous, 200 μL each) of a 375 μg/mL solution of humVEGF26-104 in PBS/CoVaccine 1:1 (v/v) (PBS=Phosphate-Buffered Saline), followed by a booster (same quantity and concentration) at two and four weeks. […]
as §3

[3] = system: BaF3 cells (murine pre-B lymphocytes stable expressing human humVEGF-Receptor 2); assay: BaF3-cell proliferation in the presence of oxid-humVEGF26-104; format: cell-based
Experimental: FIG. 8. Proliferation data from BaF3/cell assay with humVEGF26-104 at various concentration (0.01-20 ng/mL), either in the absence and presence of humVEGF1-165. Level of proliferation observed at humVEGF1-165=1.2 ng/mL was set by default to 100%, other proliferation levels were expressed as % of default.
The cells that are used in the assay are murine pre-B lymphocytes stable expressing human (h) humVEGF-Receptor 2 (Makinen et al., 2001). These recombinant cells survive/proliferate only in the presence of IL-3 (natural cytokine required for the survival of the parental cells) or humVEGF. […]
Two days later, cell proliferation was measured by adding WST-1 (Roche #1644807). […]
The WST-1 assay is based on the measurement of the mitochondrial succinate dehydrogenase activity. […] A tetrazolium salt (WST-1) is used as substrate since it generates a soluble dark metabolic (formazon) through the action of the enzyme, which can then be quantified by measuring the absorbance (450 nm) in an ELISA reader. The higher the absorbance measured in the assay, the stronger the proliferation. Absorbance is positively correlated with proliferation. […]
In order to check whether oxid-humVEGF26-104, the truncated form of humVEGF1-165, is also able to induce BaF3-cell proliferation, we measured cell proliferation in the presence of varying amounts of oxid-humVEGF26-104 (0.01-20 ng/mL). […]

[4] = Immunization study in Wistar rats with oxid-ratVEGF26-104 and oxid-humVEGF26-104; format: in vivo; conditions: 250 micrograms, CoVaccine, days 0, 14, 28, 42; bled day 56
Excerpt: This example describes the results of an immunization study in male Whistar rats with both oxid-hum-VEGF26-104 and oxid-ratVEGF26-104 with an intact cystine-knot fold (oxid-form). […] The use of truncated VEGF as described in this patent can thus be used to bypass immune tolerance to “self proteins,” like, for example, the full-length homodimeric VEGF protein in this particular case.
A total of four Wistar rats (2×2) were immunized on day 0 with 250 micrograms each of either oxid-ratVEGF26-104 (two rats) or oxid-humVEGF26-104 (two rats) using CoVaccine as adjuvant, followed by booster inoculations at day 14, 28, and 42. The rats were finally bled at day 56, and the sera were analyzed for antibody titers against ratVEGF1-165, humVEGF1-165, oxid-ratVEGF26-104, and oxid-humVEGF26-104.

Molecule: Avastin: humanized anti-humVEGF monoclonal antibody (Genentech)
titer endblood (mAb, as concentration) [1]: <1000 ng/mL

B3: oxid-ratVEGF26-104: truncated rat VEGF residues 26-104, acetylated and amidated, cystine-knot folded (SEQ ID NO:30) (peptide)
chain: CRPIETLVDIFQEYPDEIEYIFKPSAVPLMRCAGACNDEALECVPTSESNVTMQIMRIKPHQSQHIGEMSFLQHSRCEC
modifications: N-acetyl, C-amide, cystine-knot folded; ratVEGF26-104
immunogenicity in rats compared to oxid-humVEGF26-104 [4]: equally immunogenic and potent as compared to oxid-humVEGF26-104

Second part, led by results:

fold less active in binding to Avastin™ (Avastin™): > 10,000 fold
Molecule: (cyclic) peptide-mimic derived from the beta3-loop of humVEGF: backbone-cyclized peptide covering only the β5-turn-β6 loop of humVEGF (humVEGF74-98) (SNITMQIMRIKPHQGQHIGEMSFLQ; cyclised or stapled) [reference compound]

titer in ELISA to full-length TGF-B2, pre-immune sera (full-length TGF-B2; pre-immune sera of the two rats): ≤ 2.1
titer in ELISA to full-length TGF-B2, nine weeks post vaccination antisera (full-length TGF-B2; two rats, inoculations at 0, 2, 4, 7.5 wks, titer = -10log[conc] at which OD = 4x background): 3.8 and 4.1
B1: oxid-humTGFB215-111/Δ49-77-humVEGF62-67: chimeric truncated human TGFB2 residues 15-111 with beta2-loop replaced by humVEGF 62-67 (SEQ ID NO:35) (peptide)
chain: CALRPLYIDFKRDLGWKWIHEPKGYNANFCAGACNDEGLECVSQDLEPLTILYYIGKTPKIEQLSNMIVKSCKC
modifications: oxidized; humTGFB2-humVEGF
cross-reactivity of elicited antibodies with native humTGF-B2 (full-length TGF-B2; rat antisera): fully cross-reactive with the native protein humTGF-B2
specificity of antibodies in the sera (TGFB2-part versus VEGF-part) [2]: majority of antibodies in the sera were directed towards the TGFB2-part of the peptide

difference in affinity (as compared to humVEGF1-165) to Avastin™ (Avastin™; 10 ng/mL Avastin): less than five
B2: oxid-humVEGF26-104: truncated human VEGF residues 26-104, N-acetylated, C-amidated, cystine-knot folded (SEQ ID NO:27) (peptide)
chain: B3 chain with R2H, A33G, A40G, S47E, V51I, S63G, S75N, R76K
modifications: N-acetyl, C-amide, cystine-knot folded; VEGF26-104
antibody generation via immunization (not conjugated to a carrier protein) (humVEGF1-165): high levels of antibodies were successfully generated
effect on the proliferating ability of humVEGF1-165 ([3]; 0.01-20 ng/mL in the presence of humVEGF1-165=1.2 ng/mL): nor any affect on the proliferating ability of humVEGF1-165
activity in BaF3-cell proliferation ([3]; 0.01-20 ng/mL, absence of humVEGF1-165): no activity
